# Assay results: patent US20230357364A1 (INTERNATIONAL AIDS VACCINE INITIATIVE, published 2023)
# Numbering of substitutions follows the chain as printed.
# B1: L12.bP11A11 (antibody, V domains shown)
# VH: QVQLVQSGAEVKKPGASVKVSCKASGYTFTGYYMHWVRQAPGQGLEWMGWISPNSGGTNYAQKFQGWVTMTRDTSVSTAYMELSRLRFDDTAVYYCATESWVYGSGSYSSGAFDIWGQGTMVTVSS
# VL: QSVLTQPPSASGSPGQSVTISCTGTSSDVGGYDYVSWYQQHPGKAPKLMIYEVSKRPSGVPDRFSGSKSGNTASLTVPGLQAEDEADYYCTSYAGSNNFVFGGGTKLIVL
# notes: human IgG1
# B2: L12.cP07E10 (antibody, V domains shown)
# VH: EVQLVESGGGLIQPGGSLRLSCAASGFTVSSNYMSWVRQAPGKGLEWVSVIYSGGSTYYADSVKGRFTISRDNSKNTLYLQMNSLRAEDTAVYYCARDPYGYSSIWDGQGGHWGQGTLVTVSS
# VL: DVVMTQSPSSLSASVGDRVTITCQASQDISNYLNWYQQKPGKAPKLLIYDASNFATGVPSRFSGTGSGTDFTFTISSLQPEDIATYYCQQYDNLPITFGQGTRLEIK
# notes: human IgG1
# B3: L12.bP11G07 (antibody, V domains shown)
# VH: QVQLVESGGGLIQPGGSLRLSCAASGFTVSSNYMSWVRQAPGKGLEWVSVIYSGGSTFYADSVKGRFTISRDNSKSTLYLQMNSLRVEDTAVYYCARDFGDFYFDYWGQGTLVTVSS
# VL: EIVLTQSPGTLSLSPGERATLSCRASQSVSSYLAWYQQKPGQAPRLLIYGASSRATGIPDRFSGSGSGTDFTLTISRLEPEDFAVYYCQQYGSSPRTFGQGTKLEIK
# notes: human IgG1
# B4: L12.bP13A12 (antibody, V domains shown)
# VH: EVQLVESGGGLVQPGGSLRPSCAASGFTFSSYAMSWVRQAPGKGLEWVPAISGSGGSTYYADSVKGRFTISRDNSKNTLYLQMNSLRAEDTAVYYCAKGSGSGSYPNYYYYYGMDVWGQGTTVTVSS
# VL: SYELTQSPSVSVAPGQTARITCGGNNIGSKSVHWYQRKPGQAPVLVVYDDSDRPSGIPERFSGSNSGNTATLTISRVEAGDEADYYCQVWDNNSDHLVFGGGTKLTVL
# B5: L12.cP08A09 (antibody, V domains shown)
# VH: QVQLVQSGAEVKKPGASVKVSCKASGYIYSGYYMHWVRQAPGQGLEWMGWISPDSGGTNYAQRFQGRVTMTRDTSTTTAYMELSRLRSDDTAVYYCARGPRYSGTYFDYWGQGTLVTVSS
# VL: QSALTQPASVSGSPGQSITISCTGTSSDVGGYNYVSWYQQHPDKAPKLMIYDVSNRPSGVSNRFSGSKSGNTASLTISGLQAEDEADYYCSSYTSGSTQVFGGGTKLTVL
# notes: human IgG1
# B6: L12.cP08D10 (antibody, V domains shown)
# VH: B5 VH with Q1E, Y29F, R63N, T76I, T77S, A79G, V93M, T114V
# VL: B5 VL with A3V, D43G, A45V, G96S, T98A
# notes: human IgG1
# B7: L12.bP12H09 (antibody, V domains shown)
# VH: B5 VH with Y29F, M34T, R63K, T76I, M81V, R85G
# VL: B5 VL with Y34H, D43G, G96S, T98A, V100L
# notes: human IgG1
# B8: L12.cP09D03 (antibody, V domains shown)
# VH: B5 VH with Y29F, M34T, R63K, T76I, M81V, R85G
# VL: B5 VL with A3V, D43G, A45V, G96S, T98A, V100L
# notes: human IgG1
# B9: L12.cP09C07 (antibody, V domains shown)
# VH: B5 VH with Y33F, T58A, R63T, Y80H, Y106H
# VL: B5 VL with I18L, S54N, N71S, T94A, S95G, G96S, T108I
# notes: human IgG1
# B10: L12.bP11C10 (antibody, V domains shown)
# VH: B5 VH with Y29F, R63K, T76I, A79G, R85G, V118I
# VL: B5 VL with A8T, D43G, M49I, S95V, G96S
# notes: human IgG1
# B11: L12.cP09D05 (antibody, V domains shown)
# VH: QVQLVESGGGLVKPGGSLRLSCAASGFTFNYYSMNWVRQAPGKGLEWISSISTSSSFVYYADSVKGRFTISRDNAKTSLYLQMNSLRAEDTAVYFCARGGYCSDGSCYVQDRLIYYYSGLDVWGQGTTVTVSS
# VL: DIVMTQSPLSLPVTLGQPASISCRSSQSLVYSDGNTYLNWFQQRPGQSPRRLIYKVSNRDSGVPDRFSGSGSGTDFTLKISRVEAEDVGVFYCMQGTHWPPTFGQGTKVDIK
# notes: human IgG1
# B12: L12.bP12E05 (antibody, V domains shown)
# VH: EVQLVQSGAEVKKPGASVKVTCKTSGYIFSGYYMHWVRQVPGQGLEWMGWISPDSGATNYAQKFQGRVTMTRDTSITTSYVELTWLKSDDTAVYYCARGPRYSGTYFDFWGQGTLVTVSS
# VL: QAVVTQPASVSGSPGQSLTISCTGTSSDIGGFNYVSWYQQHPGKAPKLMIFDVSKRPSGVPNRFSGSKSGNTASLTISGLQAEDEGDYYCSSYTISSAQVFGGGTKLTVL
# notes: human IgG1
# Biological target: SARS-CoV-2 RBD (RBD-2) (SARS-CoV-2)
# Assay: flow, HeLa-ACE2, mAb:RBD=2:1
Binder,% inhibition of RBD binding to hACE2 [%],MFI (RBD binding to cell surface)
B1,43.6,6330
B2,98.6,237
B3,86.8,1550
B4,-44.2,16100
B5,39.4,6800
B6,6.1,10500
B7,41.6,6560
B8,40.9,6640
B9,54.5,5130
B10,38.5,6900
B11,75.4,2810

# Biological target: T1, SARS-CoV-1 spike on pseudovirus (SARS-CoV-1, UniProt P59594 14-1255)
# Assay: cell-based or functional assay
row,Binder,PSV neutralization IC50 [µg/mL]
1,B1,> 50
2,B2,> 50
3,B3,> 50
4,B4,> 50
5,B12,> 50
6,B5,> 50
7,B6,> 50
8,B7,> 50
9,B8,> 50
10,B9,> 50
11,B10,> 50
12,B11,> 50

# Biological target: T2, SARS-CoV-2 spike on pseudovirus or live virus (USA-WA1/2020, WT) (SARS-CoV-2, UniProt P0DTC2 14-1273)
# Assay: cell-based or functional assay
Binder,Maximum Plateau of Neutralization [%],PSV neutralization IC50 [µg/mL]
B1,100,0.11
B2,100,0.1
B3,100,0.018
B4,50,> 50
B12,89,0.255
B5,99,1.5
B6,60,23.5
B7,100,0.106
B8,85,0.135
B9,95,–
B10,100,0.494
B11,100,0.023

# Biological target: SARS-CoV-2 RBD (RBD-2) (SARS-CoV-2)
# Assay: SPR, Fc-captured IgG
Binder,Kd [nM],koff [s⁻¹],kon [M⁻¹ s⁻¹]
B1,170,0.066,388000
B2,2.6,0.000364,140000
B3,8.59,0.00342,399000
B4,26,0.0115,443000
B12,183,0.143,782000
B5,175,0.0707,404000
B6,> 500,0.312,59400
B7,155,0.12,773000
B8,147,0.0843,575000
B9,87.9,0.0691,786000
B10,255,0.126,493000
B11,36.2,0.0157,435000

# Biological target: T1, SARS-CoV-1 spike on pseudovirus
# Assay: cell-based or functional assay
# Remark: another data set of the same source
row,Binder,PSV neutralization IC50 [µg/mL]
1,B1,> 50
2,B2,> 50
3,B3,> 50
4,B4,> 50
5,B12,> 50
6,B5,> 50
7,B6,> 50
8,B7,> 50
9,B8,> 50
10,B9,> 50
11,B10,> 50
12,B11,> 50

# Biological target: T2, SARS-CoV-2 spike on pseudovirus or live …
# Assay: cell-based or functional assay
# Remark: another data set of the same source
row,Binder,PSV neutralization IC50 [µg/mL]
1,B1,0.016
2,B2,0.029
3,B3,0.013
4,B4,0.051
5,B12,0.075
6,B5,0.382
7,B6,4.3
8,B7,0.062
9,B8,0.351
10,B9,0.085
11,B10,0.092
12,B11,0.008

# Biological target: SARS-CoV-1 RBD (RBD-1) (SARS-CoV-1)
# Assay: ELISA
row,Binder,EC50 [µg/mL]
1,B1,> 50
2,B2,> 50
3,B3,> 50
4,B4,> 50
5,B12,> 50
6,B5,> 50
7,B6,> 50
8,B7,> 50
9,B8,> 50
10,B9,> 50
11,B10,> 50
12,B11,> 50

# Biological target: SARS-CoV-2 RBD (RBD-2) (SARS-CoV-2)
# Assay: ELISA
row,Binder,EC50 [µg/mL]
1,B1,1.9
2,B2,0.058
3,B3,0.025
4,B4,0.019
5,B12,1.17
6,B5,0.666
7,B6,> 50
8,B7,0.483
9,B9,0.16
10,B10,3.12
11,B11,0.039

# Biological target: SARS-CoV-2 RBD (RBD-2) (SARS-CoV-2)
# Assay: flow, HeLa-ACE2, mAb:RBD=4:1
Binder,% inhibition of RBD binding to hACE2 [%],MFI (RBD binding to cell surface)
B1,53.9,5190
B2,99.1,178
B3,91.9,982
B4,-46.7,16400
B5,49,5740
B6,13.2,9710
B7,54.7,5100
B8,50.1,5620
B9,64.3,4040
B10,54.1,5170
B11,80.6,2230
